Earlier results on 1 substance are cited in article PMC3413316.

One may read the Kd as the equilibrium constant for the complex coming apart.

In series [1] the target is Protein C (Homo sapiens) (UniProt P04070).
Series [2] concerns the target Activated protein C (Homo sapiens) (UniProt P04070).

Sequence of EPCR (Q9UNN8 18-210): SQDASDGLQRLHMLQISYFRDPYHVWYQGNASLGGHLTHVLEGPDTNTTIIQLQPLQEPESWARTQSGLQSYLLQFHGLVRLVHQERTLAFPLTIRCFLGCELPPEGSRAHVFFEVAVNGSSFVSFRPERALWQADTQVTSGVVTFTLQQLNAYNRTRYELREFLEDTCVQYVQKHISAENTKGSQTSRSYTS
Sequence of Activated protein C (Homo sapiens) (P04070 43-197, chain 1 of 2): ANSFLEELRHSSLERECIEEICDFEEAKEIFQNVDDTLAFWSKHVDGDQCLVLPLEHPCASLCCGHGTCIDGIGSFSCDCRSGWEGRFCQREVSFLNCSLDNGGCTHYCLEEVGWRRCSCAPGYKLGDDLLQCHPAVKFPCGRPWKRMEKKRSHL
Sequence of Activated protein C (Homo sapiens) (P04070 212-461, chain 2 of 2): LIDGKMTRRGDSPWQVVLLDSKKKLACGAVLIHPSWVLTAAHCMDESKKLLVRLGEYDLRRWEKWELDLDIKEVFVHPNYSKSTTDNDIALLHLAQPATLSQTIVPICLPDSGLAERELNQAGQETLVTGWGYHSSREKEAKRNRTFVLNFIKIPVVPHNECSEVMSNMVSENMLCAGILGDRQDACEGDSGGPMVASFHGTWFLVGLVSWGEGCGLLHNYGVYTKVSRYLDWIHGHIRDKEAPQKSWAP
Sequence of Protein C (Homo sapiens) (P04070 43-197): as the sequence (P04070 43-197, chain 1 of 2) above

Turning to EPCR (from UniProt Q9UNN8), the Kd in series [1] and in series [2] was 60 nM in each case.
